The FLAb antibody collection (doi:10.7554/elife.23156)

B1: scFv; the commonest letter at each place (parent)
chain 1: EVKLDETGGGLVQPGRPMKLSCVASGFTFSDYWMNWVRQSPEKGLEWVAQIRNKPYNYETYYSDSVKGRFTISRDDSKSSVYLQMNNLRVEDMGIYYCTGSYYGMDYWGQGTSVTVS
chain 2: DVVMTQTPLSLPVSLGDQASISCRSSQSLVHSNGNTYLRWYLQKPGQSPKVLIYKVSNRFSGVPDRFSGSGSGTDFTLKISRVEAEDLGVYFCSQSTHVPWTFGGGTKLEIK

Tests used:
[1] = variants of: B1; experiment: Kd (Tite-Seq); conditions: with fluorescein; format: scFv 4-4-20, heavy + light
[2] = variants of: B1; experiment: yeast surface expression (ratio to wild type); higher = more expressed; conditions: format: scFv 4-4-20, heavy + light

Variant | Kd [1] [µM] | yeast surface expression [2]
chain 1 T28C M34L W36M | ≥ 10 | 0.657
chain 1 G100E D106Q | ≥ 10 | 0.172
chain 1 M34V V37K | ≥ 10 | 0.747
chain 1 F29R D31K | ≥ 10 | 0.343
chain 1 D31E M34N | ≥ 10 | 0.61
chain 1 W108E G109P | ≥ 10 | 0.356
chain 1 W108E G109V | ≥ 10 | 0.33
chain 1 G104I M105S | ≥ 10 | 0.592
chain 1 W36Q | ≥ 10 | 0.308
chain 1 W36T | ≥ 10 | 0.497
chain 1 W36G | ≥ 10 | 0.534
chain 1 Y102H M105T | ≥ 10 | 0.972
chain 1 S101I M105N | ≥ 10 | 0.482
chain 1 Y32H N35D | ≥ 10 | 0.772
chain 1 F29W N35G | ≥ 10 | 0.71
chain 1 T28S W33S | ≥ 10 | 0.919
chain 1 M34S N35H | ≥ 10 | 0.536
chain 1 T28W N35H | ≥ 10 | 0.727
chain 1 G104V M105E | ≥ 10 | 0.637
chain 1 G104T D106C Y107Q | ≥ 10 | 0.31
chain 1 G100M G109W | ≥ 10 | 0.185
chain 1 Y32M W33D V37C | ≥ 10 | 0.778
chain 1 F29I Y32E | ≥ 10 | 0.916

Variant | Kd [1] [µM] | yeast surface expression [2]
chain 1 D31M M34K | ≥ 10 | 0.564
chain 1 Y102F G104Y W108D | ≥ 10 | 0.204
chain 1 W33S W36D | ≥ 10 | 0.562
chain 1 G104V D106P | ≥ 10 | 0.232
chain 1 Y102P G104Y W108S | ≥ 10 | 0.379
chain 1 M105E D106Y | ≥ 10 | 0.534
chain 1 G104C Y107P W108I | ≥ 10 | 0.214
chain 1 S101I W108E | ≥ 10 | 0.21
chain 1 G100T Y103E | ≥ 10 | 1.28
chain 1 S101E W108K | ≥ 10 | 0.375
chain 1 G100R Y102I | ≥ 10 | 0.483
chain 1 F29L Y32F | ≥ 10 | 0.72
chain 1 Y103C G109D | ≥ 10 | 0.356
chain 1 D106C W108K | ≥ 10 | 0.314
chain 1 Y102H G104F | ≥ 10 | 0.598
chain 1 D106N W108Q | ≥ 10 | 0.453
chain 1 S101N G104N | ≥ 10 | 0.806
chain 1 F29E D31G N35R | ≥ 10 | 0.621
chain 1 G100N D106N | ≥ 10 | 0.287
chain 1 T28R S30L D31S | ≥ 10 | 0.198
chain 1 M105N G109E | ≥ 10 | 0.266
chain 1 G104L | ≥ 10 | 0.556
chain 1 G104S | ≥ 10 | 0.799

Variant | Kd [1] [µM] | yeast surface expression [2]
chain 1 D31R M34S | ≥ 10 | 0.507
chain 1 F29Q Y32V | ≥ 10 | 0.848
chain 1 Y32K V37R | ≥ 10 | 1.18
chain 1 F29M W36V | ≥ 10 | 0.782
chain 1 G104N W108M G109E | ≥ 10 | 0.217
chain 1 F29K | ≥ 10 | 0.849
chain 1 Y103K D106M | ≥ 10 | 0.716
chain 1 Y32N | ≥ 10 | 1.21
chain 1 G100L S101M | ≥ 10 | 0.474
chain 1 D31G W33Q | ≥ 10 | 0.657
chain 1 S30W Y32Q | ≥ 10 | 0.646
chain 1 G100Q G104E | ≥ 10 | 0.38
chain 1 Y32C N35M | ≥ 10 | 0.536
chain 1 W36S V37D | ≥ 10 | 1.34
chain 1 F29Y Y32R | ≥ 10 | 0.761
chain 1 W33R V37W | ≥ 10 | 0.543
chain 1 S101D G109I | ≥ 10 | 0.22
chain 1 D31W W33L N35I | ≥ 10 | 0.49
chain 1 Y102S D106W | ≥ 10 | 0.385
chain 1 Y102D Y103L G109P | ≥ 10 | 0.465
chain 1 F29A Y32N | ≥ 10 | 0.832
chain 1 T28L W33Y | ≥ 10 | 0.826
chain 1 Y32R N35K | ≥ 10 | 1.99

Second part, led by results:

Kd [1] [µM] | Variant | yeast surface expression [2]
≥ 10 | chain 1 S30N W33M | 0.879
≥ 10 | chain 1 M105F G109L | 0.369
≥ 10 | chain 1 Y103A W108D | 0.576
≥ 10 | chain 1 Y32G W33A | 0.708
≥ 10 | chain 1 F29M W33P | 0.639
0.0221 | chain 1 W108K | 0.504
≥ 10 | chain 1 W33H M34R V37T | 0.786
≥ 10 | chain 1 G100T D106A | 0.704
≥ 10 | chain 1 W108S G109R | 0.307
0.00122 | chain 1 T28H S30G | 1.04
≥ 10 | chain 1 G100K Y107V | 0.3
≥ 10 | chain 1 M34P V37L | 1.01
≥ 10 | chain 1 W36L V37Q | 0.537
≥ 10 | chain 1 F29D W33C M34D | 0.403
≥ 10 | chain 1 M105G D106Q | 0.514
≥ 10 | chain 1 Y102F M105C W108T | 0.419
≥ 10 | chain 1 S30Y W36N | 0.436
≥ 10 | chain 1 G100V G104A | 0.747
5.96 | chain 1 G100V W108C | 0.628
≥ 10 | chain 1 S101W Y103A | 0.685
≥ 10 | chain 1 S101N G109N | 0.267
0.55 | chain 1 D106S W108V | 0.859
7.72 | chain 1 V37H | 0.831

Kd [1] [µM] | Variant | yeast surface expression [2]
≤ 0.000316 | chain 1 V37C | 0.926
0.000504 | chain 1 Y102A W108P | 0.525
0.00672 | chain 1 F29E N35I | 0.276
0.0534 | chain 1 S30Y M34A | 0.483
0.00158 | chain 1 T28F V37C | 0.588
1.47 | chain 1 S30G W36S | 0.275
0.0221 | chain 1 Y32F M34L | 0.781
0.176 | chain 1 Y102A M105T | 1.08
0.00871 | chain 1 T28D F29Y | 0.975
7.72 | chain 1 Y32R W36Y | 0.635
2.35 | chain 1 Y103T | 0.896
0.0125 | chain 1 Y102K M105Y | 0.955
0.00546 | chain 1 D31N Y32L | 0.878
0.00251 | chain 1 F29M | 1.21
0.00468 | chain 1 T28E F29Y | 1.01
0.00638 | chain 1 T28C D31S | 0.694
0.021 | chain 1 G104Y G109R | 1.08
0.00638 | chain 1 T28S F29Q | 0.969
≤ 0.000316 | chain 1 Y102S W108T | 0.599
0.676 | chain 1 F29I S30L | 0.564
0.00309 | chain 1 T28I D31A | 0.566
0.02 | chain 1 G104F W108R | 0.146
0.0507 | chain 1 M105Y G109S | 0.936
